A short description of data set [1]: folding stability dG unfold from chymotrypsin proteolysis; higher = more stable. The method, boiled down: (§1)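 Bayesian fitting of sequencing counts gave K50 for each design. Unfolding free energy followed by setting this against a sequence-predicted unfolded-state K50 and a shared folded-state K50, either per protease or with trypsin and chymotrypsin combined. The designs, under 80 residues and lacking cysteine, were digested in a PA-tagged cDNA display format at 11 threefold-diluted protease concentrations and without protease, and only those with AlphaFold2 dimer inter-PAE above 15 were kept.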

Data set [2] in a line: folding stability dG unfold (combined trypsin and chymotrypsin); higher = more stable. The method, boiled down:
as §1

The nature of data set [3]: folding stability dG unfold from trypsin proteolysis; higher = more stable. The method, boiled down:
as §1

± gives the half width of the 95% confidence interval.

Regarding “SAGGSAGGSAGEPVEVTPLSTETVPDSDTTVTYYKVTYPGGKEAIRTVYSDGTETTTPLPSAGGSAGGSAGG [r11_637_JUSTAS]”, the “folding stability dG unfold” value was 1.02 ± 0.1 kcal/mol in data set [1], 0.969 ± 0.17 kcal/mol in data set [2] and 0.915 ± 0.12 kcal/mol in data set [3].

With “SAGGSAGGSAGERLTADELRKLAEELGLPAEITVERKEDGTYTVTITVDGKTYKIEIKLDSAGGSAGGSAGG [r11_410_TrROS_Hall]”, the “folding stability dG unfold” value in data set [1] stood at 3.44 ± 0.1 kcal/mol; in data set [2], 3.16 ± 0.15 kcal/mol; in data set [3] it was 2.38 ± 0.096 kcal/mol.

For the sequence “SAGGSAGGSAGETVTLTLTVTVTRTYYDAETGEEVEQETETRTLTLTMSKEELERLLKELSAGGSAGGSAGG [r17_283_TrROS_Hall]”, the “folding stability dG unfold” value was 4.66 ± 0.11 kcal/mol in data set [1], 4.44 ± 0.17 kcal/mol in data set [2] and 3.28 ± 0.13 kcal/mol in data set [3].

Turning to “SAGGSAGGSAGEVEFELTVKLTVTHPSGGKSEIEVPVKITLPVVDISKEILESNPEVVKKANSAGGSAGGSA [r18_114_TrMRF]”, the “folding stability dG unfold” value in data set [1] is -0.964 ± 0.33 kcal/mol; in data set [2], -0.108 ± 0.3 kcal/mol; in data set [3] it was 0.486 ± 0.11 kcal/mol.

On to “SAGGSAGGSAGEVEIEITKVTENEDGSETLEMTIRDKDTGKTYKLTFNKDNGILTLEEEPSAGGSAGGSAGG [r11_991_TrROS_Hall]”, for which the “folding stability dG unfold” value in data set [1] is 3.05 ± 0.097 kcal/mol; in data set [2], 2.43 ± 0.2 kcal/mol; in data set [3], 1.93 ± 0.13 kcal/mol.

As to “SAGGSAGGSAGEVTVPAVVPPDAVPEVVEAVERLGARAEVEWDPETGLYRVNITFDGEVGSAGGSAGGSAGG [r11_1043_TrMRF]”, the “folding stability dG unfold” value in data set [1] was 0.901 ± 0.06 kcal/mol; in data set [2], 0.604 ± 0.07 kcal/mol; in data set [3], -0.00326 ± 0.067 kcal/mol.

For “SAGGSAGGSAGEVVLSPTDKTLTLTSFDPKTGVTYYTVFYPATGTTSTTSTGNLESLIAASAGGSAGGSAGG [r17_300_JUSTAS]”, the “folding stability dG unfold” value in data set [1] turned out to be 0.531 ± 0.13 kcal/mol; in data set [2], 0.929 ± 0.084 kcal/mol; in data set [3] it was 1.25 ± 0.024 kcal/mol.

Consider “SAGGSAGGSAGFFRVDIDIMMSPEMLDLMKKNPGLPPGQEIPIMVVIKREPVPYDPNGKLSAGGSAGGSAGG [r17_194_TrROS]”, for which the “folding stability dG unfold” value in data set [1] is 2.1 ± 0.043 kcal/mol; in data set [2], 1.8 ± 0.051 kcal/mol; in data set [3], 1.375 ± 0.013 kcal/mol.

Turning to “SAGGSAGGSAGFKLPPGQEVVFQVSIKLPDGPTQTLEDLENMPPENIDFLEIEISWVPVDSAGGSAGGSAGG [r11_899_TrROS]”, the “folding stability dG unfold” value in data set [1] stood at 1.81 ± 0.12 kcal/mol; in data set [2], 1.57 ± 0.2 kcal/mol; in data set [3], 1.09 ± 0.14 kcal/mol.

“SAGGSAGGSAGFKVPPGWKIVNTYRSPESGYPTAILRDPGDNKPLIFDFDNGKIMPAKDISAGGSAGGSAGG [r11_268_TrROS]”: the “folding stability dG unfold” value is -0.535 ± 0.69 kcal/mol in data set [1], -0.178 ± 0.55 kcal/mol in data set [2] and 0.291 ± 0.11 kcal/mol in data set [3].

Turning to “SAGGSAGGSAGFNIRIVNVEITGNKLTIYLPNGWVITIKFNKNGNINMKIEDIKPLPPGASAGGSAGGSAGG [r17_173_TrROS]”, the results for the “folding stability dG unfold” value in data set [1], in data set [2] and in data set [3] were 3.98 ± 0.064 kcal/mol, 3.61 ± 0.14 kcal/mol and 3.02 ± 0.16 kcal/mol, respectively.

On to “SAGGSAGGSAGGAEEIARKLAEETGKKVTIRIRLPNGEVYEIELDEPLEEIEGAEIVEIESAGGSAGGSAGG [r7_998_TrROS_Hall]”, for which the entries for the “folding stability dG unfold” value in data set [1], in data set [2] and in data set [3] were 1.79 ± 0.036 kcal/mol, 1.43 ± 0.061 kcal/mol and 0.639 ± 0.018 kcal/mol, respectively.

Take “SAGGSAGGSAGGAEELAKELAEKLGLEKKKVLIKLPNGKVVEVTIEDLKKLNLKNAEIVPSAGGSAGGSAGG [r7_863_TrROS_Hall]”: the results for the “folding stability dG unfold” value in data set [1], in data set [2] and in data set [3] were 0.492 ± 0.12 kcal/mol, 0.786 ± 0.18 kcal/mol and 0.906 ± 0.052 kcal/mol, respectively.

As to “SAGGSAGGSAGGAIVTTTTTKAPVFAPDGTVVAEITTTTVTVILPETPPSLLPEVLERLASAGGSAGGSAGG [r7_450_JUSTAS]”, the entries for the “folding stability dG unfold” value in data set [1], in data set [2] and in data set [3] were 0.801 ± 0.076 kcal/mol, 0.681 ± 0.16 kcal/mol and 0.553 ± 0.06 kcal/mol, respectively.

“SAGGSAGGSAGGALLVTPTPDGYIARVKDPNSDSWTVVPLSPEELEELAAAGVPTVEVLPSAGGSAGGSAGG [r7_266_JUSTAS]”: the “folding stability dG unfold” value in data set [1] was 1.46 ± 0.064 kcal/mol; in data set [2], 1.09 ± 0.16 kcal/mol; in data set [3], -0.336 ± 0.32 kcal/mol.

As to “SAGGSAGGSAGGASLKVVEREVEYYDPETGETVRVKALVTVDPNSDKEILDPEEKEKLLSSAGGSAGGSAGG [r7_557_JUSTAS]”, the “folding stability dG unfold” value in data set [1] was found to be 0.795 ± 0.016 kcal/mol; in data set [2] it was 0.907 ± 0.087 kcal/mol; in data set [3], 1.02 ± 0.034 kcal/mol.

As for “SAGGSAGGSAGGAVTPETIELPDATITVYTYPEGVVVEVTDPETGQATVISPEEFERLLASAGGSAGGSAGG [r7_372_JUSTAS]”, the “folding stability dG unfold” value in data set [1] was 1.21 ± 0.034 kcal/mol; in data set [2] it was 1.5 ± 0.057 kcal/mol; in data set [3], 1.78 ± 0.044 kcal/mol.

Turning to “SAGGSAGGSAGGDEEAIKEAAAAAPKDTTTVPVLLPDGKEVTLEVTWHPDGSRTITVRQSAGGSAGGSAGGS [r10_1017_JUSTAS]”, the “folding stability dG unfold” value was 1.6 ± 0.098 kcal/mol in data set [1], 1.15 ± 0.072 kcal/mol in data set [2] and -0.0882 ± 0.15 kcal/mol in data set [3].

The values are drawn from the supplement of paper PMC12764529.
